# Measured values published in the DeepSol protein solubility set.
# Assay: soluble on expression in E. coli; label from the status in PepcDB or PDB records
row,Sequence,soluble on expression in E. coli
1,MGSDKIHHHHHHMFFIRVDSNQTISGGHIMRCLAIAKALIINGKDVTFLIADDNPVEVLKQNRVSYVILNSDWQDLMSDLEQTIKVLSQENDPYLLIDTYCITKEYVEGLKAYAKVGYLGSKSEYLGNLDFLINYSSYIDYNYYKNNYFNGTKLLLGISYAPLRDEFQNQEPHYREQVRNILITTGNTDNDGMVGLLLDRLRYLLKEKNIIANVIIGRMFNNKELLHVKYDDNSNVKLYENVSSMSTIMRNCDLAISANGTTIYELSAMAIPTISFAMVEEQVKSAEGLDALRVIDYCGTSYTDVNKCVKAIIDKALYYIENYDNRIRLAQNAHNLIDGNGCQKIIDELF,not soluble
2,MVGSLLPSHATEFEKRLADACDFHQDVDGAVLGISRAKLITRPPRFLPWLIEEYGLGELTPYVPNLYDLIDQGLAWQRLRGSVAAIELGLKWLELSARFTPAWSGRAWWNSFQLDFDQLPEQSSLEAIEAIVDLSKSFRSDFRRSTYGYDVEATEGDMSHLDDSMLDFESGVRLTARDTLFSFGRTTQIKHTLTKEEGKLIGNWIDDVDEELSWNQIDYPWELANFPWCSVKKHERDILIAKWFQNRPLYLALRDLDNTLIGYRRCYAVQPVEQAVEGVYSHCGNRFNPSPTGTMLFLAARTDFEDVENKQAASVPLLVHGSLVEQTPLGKLWLGADELRGGVEILKTPINIPLRADVREQFKILLRF,not soluble
3,MGSDKIHHHHHHMSKTLSILVLHRVPFENVGYDQVIDHDLHQVTYLGLASPMSKLPKDLPCHKVVIEQLDLLVDSAVALTQEQGIEFDYIIGVSEYQLFDAALIRERLNIQGPKPHDVLRVRDKLVMKHQVQAAGLHVPRFFELAEVMTQELTGLQQLILKPKDGASSENVIKYADLEALRSAITSSATGIPVLDNDKNFKNFEVEEFVEGPILHLDGIVQGGVIDTFVASTYEGTCLAFAEGEALGSYQIQTEPRLMDWAQAVITALAIDSGAFHLEVIESGERLVFLEIGHRAGGANVVRTFELRTGINLHHANLATQLRLPIHRQEVNTHKSYGWFVFPGHHYDWDKCRLEGHEDIKIHHQMFEWNQLSNEQPLTKHITYQKKEVPAAGIIQGDDSIQVQNFMQRVLQYIQVQEAV,not soluble
4,SKELKEIKSELLNYTDDTLPAMERVDAIRDDLSHWRRSQFATYTYKDADKIRNKIASNIREREKISKELEAYGSTIWPGEEQQTFQRLMRQWKQYLVTMDQYNESMLAGNKTEALAVLSNSLNDFEAVDSDLNELIRLLKVAMDSNKNHILSSVN,not soluble
5,MSLVTKEREQIYILDGDIPFLAQRARLEANFTMEAKAHIQLFHQYFFNLPPDNDYIKWTVGKAMYMADGTALKQKQALDENGFYSDIISSSAVCTIMCDSIQFDEHERKFTYYGTQLIKRRTKDLKRSMITTGYIESVPRTRNNPHGLLITNWRTLENKDLDYEGHHHHHH,soluble
6,MKEIELKLKGEINRLTNKTFKFDERVGEGWFSAVYFLKTREIIEEFRPKSVVTMQFFQKENAVLCGTDEVIALLQTFAKNPEELEINSLKDGDKISPFETVLTIDGPYENFGFLEGVIDGILARRTSVATNVYNVVQAARSVDKEKPVIFMGDRDDHYTQQAGDGYAAYIGGMSAQATHAMNEWWGKSGMGTMPHALIQMFNGDVVEAAKAYHKKFPEDELVVLIDYNNDVITDALRVAREFGSTLKGVRVDTSRTMIDQYFIRHPEVLGTFDPRGVNPSLVFALRKALDEEGFQHVDIVVTGGFDEKRIREFEAQNVPVDIYGVGSSLLKMNIGFTGDNVELNGKPEAKAGRKYRPNPRLERVQLEKREDM,not soluble
7,MSDSTPKTPRGFVVHTAPVGLADDGRDDFTVLASTAPATVSAVFTRSRFAGPSVVLCREAVADGQARGVVVLARNANVATGLEGEENAREVREAVARALGLPEGEMLIASTGVIGRQYPMESIREHLKTLEWPAGEGGFDRAARAIMTTDTRPKEVRVSVGGATLVGIAKGVGMLEPDMATLLTFFATDARLDPAEQDRLFRRVMDRTFNAVSIDTDTSTSDTAVLFANGLAGEVDAGEFEEALHTAALALVKDIASDGEGAAKLIEVQVTGARDDAQAKRVGKTVVNSPLVKTAVHGCDPNWGRVAMAIGKCSDDTDIDQERVTIRFGEVEVYPPKARGDQADDALRAAVAEHLRGDEVVIGIDLAIADGAFTVYGCDLTEGYVRLNSEYTT,soluble
8,MAHHHHHHMNSKASPAALPMRQGRGFQVIVHGVLEGAECVEVGSVFARTQLFFGPDWAFLESNSGYGEDAAADDDDLVEPTYSNNAEVVTQLCDCAKGPVPYFSFTAPFEFALTSTNPFGWPQLVITLHTVEGAGGSSGKGADGNDTQLLGSGESIIGYGRCFIPMKSGYHTKKVPMMQLESTTSKQQLISFLTREKPVLRDLSFLCTGDDQVMLHARPLDGYVKLNFSVMINGMESSGFEV,soluble
